Laboratory results reported in US20100015126A1, “Methods of Binding of Cross-Beta Structures By Chaperones” (priority 2006, published 2010).

Experiments:
[1] = biological target: Hypothetical protein/Heat shock 70 kDa protein 5 (glucose-regulated protein, 78 kDa = GRP78 = BiP = HSPA5), as identified in eluates (human) (UniProt P11021); assay: BiP-Sepharose pull-down, RA synovial fluid sample 6B, 1 M NaCl eluate, MS; BiP may stem from the column
[2] = biological target: Heat shock 70 kDa protein 1L (human) (UniProt P34931); assay: BiP-Sepharose pull-down, RA synovial fluid sample 6B, 1 M NaCl eluate, MS; may be indirect
[3] = biological target: Vitronectin precursor (Serum-spreading factor/S-protein) (human) (UniProt P04004); assay: as above
[4] = biological target: Galectin-3-binding protein precursor (human) (UniProt Q08380); assay: BiP-Sepharose pull-down, RA synovial fluid sample 1B, 1 M NaCl eluate, MS; may be indirect
[5] = biological target: FLJ00385 protein (Fragment), immunoglobulin heavy constant mu (human) (UniProt P01871); assay: as above
[6] = biological target: Apolipoprotein E precursor/Apolipoprotein E/Apolipoprotein E3 (Fragment) (human) (UniProt P02649); assay: as above
[7] = biological target: Heat shock 70 kDa protein 1L (human) (UniProt P34931); assay: as above
[8] = biological target: Apolipoprotein A-IV precursor (human) (UniProt P06727); assay: as above
[9] = biological target: Histone H2B type 2-E (human) (UniProt Q16778); assay: as above
[10] = biological target: 187 kDa protein/Complement component 3 (human) (UniProt P01024); assay: as above
[11] = biological target: IGKV1-5 protein, immunoglobulin kappa variable 1-5 (human) (UniProt P01602); assay: as above
[12] = biological target: Isoform 1 of Fibrinogen alpha chain precursor (human) (UniProt P02671); assay: as above
[13] = biological target: Apolipoprotein A-II precursor (human) (UniProt P02652); assay: as above
[14] = biological target: IGHM protein, immunoglobulin heavy chain mu (heavy chain disease protein) (human) (UniProt P01871); assay: as above
[15] = biological target: IGHG4 protein, immunoglobulin heavy constant gamma 4 (human) [IgG part: P01861]; assay: as above
[16] = biological target: Hypothetical protein/Heat shock 70 kDa protein 5 (glucose-regulated protein, 78 kDa = GRP78 = BiP = HSPA5), as identified in eluates (human) (UniProt P11021); assay: BiP-Sepharose pull-down, RA synovial fluid sample 4B, 1 M NaCl eluate, MS; BiP may stem from the column
[17] = biological target: Ig kappa chain V-IV region Len, immunoglobulin kappa variable 4-1 (human) (UniProt P06312); assay: BiP-Sepharose pull-down, RA synovial fluid sample 3B, 1 M NaCl eluate, MS; may be indirect
[18] = biological target: Haptoglobin precursor (human) (UniProt P00738); assay: as above
[19] = biological target: Galectin-3-binding protein precursor (human) (UniProt Q08380); assay: as above
[20] = biological target: FLJ00385 protein (Fragment), immunoglobulin heavy constant mu (human) (UniProt P01871); assay: as above
[21] = biological target: Clusterin precursor (human) (UniProt P10909); assay: as above
[22] = biological target: Heat shock 70 kDa protein 1L (human) (UniProt P34931); assay: as above
[23] = biological target: 25 kDa protein/immunoglobulin lambda chain/rheumatoid factor G9 light chain (lambda V3)/IGLC1 protein (human) (UniProt P0CG04); assay: as above
[24] = biological target: IGKV1-5 protein, immunoglobulin kappa variable 1-5 (human) (UniProt P01602); assay: as above
[25] = biological target: Isoform A of Proteoglycan-4 precursor (human) (UniProt Q92954); assay: as above
[26] = biological target: IGHM protein, immunoglobulin heavy chain mu (heavy chain disease protein) (human) (UniProt P01871); assay: as above
[27] = biological target: Neutrophil defensin 1 precursor (human) (UniProt P59665); assay: as above
[28] = biological target: Apolipoprotein A-I precursor (human) (UniProt P02647); assay: as above
[29] = biological target: Isoform H17 of Myeloperoxidase precursor (human) (UniProt P05164); assay: as above
[30] = biological target: Histone H3.2 (human) (UniProt Q71DI3); assay: as above

Sequence of recombinant human BiP with C-terminal linker, FLAG-tag and His-tag (BiP-FLAG-His) (P11021 other isoform, or with tags, fused parts or gaps): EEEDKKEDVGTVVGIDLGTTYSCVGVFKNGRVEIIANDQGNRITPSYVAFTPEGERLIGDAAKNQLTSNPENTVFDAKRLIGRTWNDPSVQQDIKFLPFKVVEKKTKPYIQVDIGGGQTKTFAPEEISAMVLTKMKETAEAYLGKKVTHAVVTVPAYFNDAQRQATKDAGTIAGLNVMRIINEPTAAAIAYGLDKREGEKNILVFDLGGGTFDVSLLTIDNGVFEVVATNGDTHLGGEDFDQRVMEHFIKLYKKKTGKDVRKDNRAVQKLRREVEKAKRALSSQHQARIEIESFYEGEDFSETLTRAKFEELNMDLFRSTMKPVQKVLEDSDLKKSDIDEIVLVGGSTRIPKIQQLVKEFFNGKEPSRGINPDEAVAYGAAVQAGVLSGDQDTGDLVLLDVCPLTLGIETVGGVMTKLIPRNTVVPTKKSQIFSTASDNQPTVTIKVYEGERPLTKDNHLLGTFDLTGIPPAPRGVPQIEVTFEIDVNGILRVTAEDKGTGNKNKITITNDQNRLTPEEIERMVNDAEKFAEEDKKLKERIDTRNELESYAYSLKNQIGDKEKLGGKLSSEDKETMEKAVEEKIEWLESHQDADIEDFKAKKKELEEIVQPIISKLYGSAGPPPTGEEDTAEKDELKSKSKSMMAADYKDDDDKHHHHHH
Sequence of Heat shock 70 kDa protein 1L (human) (P34931 whole entry): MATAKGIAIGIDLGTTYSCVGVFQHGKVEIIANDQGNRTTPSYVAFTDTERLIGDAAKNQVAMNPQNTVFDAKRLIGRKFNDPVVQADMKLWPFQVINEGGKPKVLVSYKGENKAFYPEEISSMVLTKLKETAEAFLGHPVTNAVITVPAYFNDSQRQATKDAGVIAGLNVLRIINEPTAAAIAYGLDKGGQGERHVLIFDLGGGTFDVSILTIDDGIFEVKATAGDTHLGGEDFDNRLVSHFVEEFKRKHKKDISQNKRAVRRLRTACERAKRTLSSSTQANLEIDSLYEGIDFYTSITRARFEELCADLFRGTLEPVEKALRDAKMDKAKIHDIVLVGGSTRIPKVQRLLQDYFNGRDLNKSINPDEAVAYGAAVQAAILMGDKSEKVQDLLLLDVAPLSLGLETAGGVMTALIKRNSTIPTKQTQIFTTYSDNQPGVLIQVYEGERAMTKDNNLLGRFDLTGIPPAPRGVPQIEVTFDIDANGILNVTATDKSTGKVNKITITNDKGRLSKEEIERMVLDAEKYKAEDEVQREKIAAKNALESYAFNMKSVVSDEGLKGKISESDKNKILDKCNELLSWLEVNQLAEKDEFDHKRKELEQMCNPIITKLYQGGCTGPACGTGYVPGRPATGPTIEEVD
Sequence of Hypothetical protein/Heat shock 70 kDa protein 5 (glucose-regulated protein, 78 kDa = GRP78 = BiP = HSPA5), as identified in eluates (human) (P11021 19-654 limits assumed): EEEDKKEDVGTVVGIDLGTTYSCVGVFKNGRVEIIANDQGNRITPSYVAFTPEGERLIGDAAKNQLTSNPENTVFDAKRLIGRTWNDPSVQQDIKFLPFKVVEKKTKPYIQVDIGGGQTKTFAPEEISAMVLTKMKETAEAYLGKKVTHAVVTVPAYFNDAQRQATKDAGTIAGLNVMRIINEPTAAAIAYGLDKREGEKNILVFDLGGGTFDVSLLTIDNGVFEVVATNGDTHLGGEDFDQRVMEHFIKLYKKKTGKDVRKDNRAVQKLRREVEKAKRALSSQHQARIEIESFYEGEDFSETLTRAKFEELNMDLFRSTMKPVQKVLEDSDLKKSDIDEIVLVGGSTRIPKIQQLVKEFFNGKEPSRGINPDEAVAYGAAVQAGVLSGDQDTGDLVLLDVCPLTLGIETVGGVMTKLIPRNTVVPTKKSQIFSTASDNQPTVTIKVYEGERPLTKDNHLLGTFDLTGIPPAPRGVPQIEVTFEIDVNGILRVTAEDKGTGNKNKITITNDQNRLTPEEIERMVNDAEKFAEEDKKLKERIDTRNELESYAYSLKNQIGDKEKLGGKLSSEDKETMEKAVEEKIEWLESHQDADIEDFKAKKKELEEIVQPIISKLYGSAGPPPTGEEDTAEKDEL
Sequence of IGHM protein, immunoglobulin heavy chain mu (heavy chain disease protein) (human) (P01871 other isoform, or with tags, fused parts or gaps limits assumed): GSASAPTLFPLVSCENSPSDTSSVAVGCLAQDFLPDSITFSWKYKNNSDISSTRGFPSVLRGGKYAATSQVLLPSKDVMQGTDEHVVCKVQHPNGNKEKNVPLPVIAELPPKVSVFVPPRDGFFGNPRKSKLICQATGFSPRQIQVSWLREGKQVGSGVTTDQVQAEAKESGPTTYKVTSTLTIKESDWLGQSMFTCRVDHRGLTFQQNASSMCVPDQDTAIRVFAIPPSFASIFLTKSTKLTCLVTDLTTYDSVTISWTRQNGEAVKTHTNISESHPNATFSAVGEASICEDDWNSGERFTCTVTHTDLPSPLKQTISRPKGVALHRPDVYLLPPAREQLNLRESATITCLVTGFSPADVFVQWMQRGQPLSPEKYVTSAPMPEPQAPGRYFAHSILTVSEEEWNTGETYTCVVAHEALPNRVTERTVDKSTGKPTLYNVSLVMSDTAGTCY
Sequence of FLJ00385 protein (Fragment), immunoglobulin heavy constant mu (human) (P01871 other isoform, or with tags, fused parts or gaps limits assumed): as above
Sequence of IGKV1-5 protein, immunoglobulin kappa variable 1-5 (human) (P01602 23-117 limits assumed): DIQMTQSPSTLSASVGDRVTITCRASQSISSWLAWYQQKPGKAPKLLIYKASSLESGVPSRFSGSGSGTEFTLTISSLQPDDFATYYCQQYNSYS
Sequence of Galectin-3-binding protein precursor (human) (Q08380 19-585 limits assumed): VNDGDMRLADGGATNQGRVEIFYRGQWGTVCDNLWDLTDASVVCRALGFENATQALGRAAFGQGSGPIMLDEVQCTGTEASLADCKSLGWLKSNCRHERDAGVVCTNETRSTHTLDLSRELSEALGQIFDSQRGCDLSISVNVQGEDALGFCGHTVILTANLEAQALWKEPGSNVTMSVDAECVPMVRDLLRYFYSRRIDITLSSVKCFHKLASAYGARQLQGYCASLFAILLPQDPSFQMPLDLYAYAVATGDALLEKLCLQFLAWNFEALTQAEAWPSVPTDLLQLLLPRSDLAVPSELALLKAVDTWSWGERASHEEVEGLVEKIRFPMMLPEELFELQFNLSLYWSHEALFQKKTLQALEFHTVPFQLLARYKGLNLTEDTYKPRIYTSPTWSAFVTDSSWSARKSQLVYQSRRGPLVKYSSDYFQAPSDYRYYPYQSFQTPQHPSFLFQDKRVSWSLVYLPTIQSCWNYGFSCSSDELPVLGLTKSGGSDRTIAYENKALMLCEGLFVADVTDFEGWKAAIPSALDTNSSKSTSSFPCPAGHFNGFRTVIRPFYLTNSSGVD
Sequence of Apolipoprotein A-IV precursor (human) (P06727 21-396 limits assumed): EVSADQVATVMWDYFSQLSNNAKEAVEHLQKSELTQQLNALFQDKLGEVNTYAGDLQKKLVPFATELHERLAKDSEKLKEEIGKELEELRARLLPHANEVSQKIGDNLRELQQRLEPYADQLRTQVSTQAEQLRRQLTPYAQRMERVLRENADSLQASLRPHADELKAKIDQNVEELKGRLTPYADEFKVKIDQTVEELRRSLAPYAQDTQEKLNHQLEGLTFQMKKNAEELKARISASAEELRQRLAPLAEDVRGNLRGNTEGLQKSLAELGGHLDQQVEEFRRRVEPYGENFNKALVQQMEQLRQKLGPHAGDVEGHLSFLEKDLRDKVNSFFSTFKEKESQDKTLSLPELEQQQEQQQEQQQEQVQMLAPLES
Sequence of Neutrophil defensin 1 precursor (human) (P59665 65-94 limits assumed): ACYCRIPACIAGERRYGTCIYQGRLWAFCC
Sequence of IGHG4 protein, immunoglobulin heavy constant gamma 4 (human) [IgG part: P01861] (P01861 other isoform, or with tags, fused parts or gaps limits assumed): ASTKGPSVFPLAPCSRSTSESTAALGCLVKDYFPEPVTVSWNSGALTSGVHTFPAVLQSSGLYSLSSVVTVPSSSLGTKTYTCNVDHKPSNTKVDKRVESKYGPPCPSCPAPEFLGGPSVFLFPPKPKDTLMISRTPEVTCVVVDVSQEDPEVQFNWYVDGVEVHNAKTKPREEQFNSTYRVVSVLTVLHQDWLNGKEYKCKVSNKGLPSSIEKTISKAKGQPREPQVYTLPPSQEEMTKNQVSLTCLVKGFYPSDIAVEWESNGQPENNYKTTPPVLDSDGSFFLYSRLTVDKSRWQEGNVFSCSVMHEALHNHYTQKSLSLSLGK
Sequence of Vitronectin precursor (Serum-spreading factor/S-protein) (human) (P04004 20-478 limits assumed): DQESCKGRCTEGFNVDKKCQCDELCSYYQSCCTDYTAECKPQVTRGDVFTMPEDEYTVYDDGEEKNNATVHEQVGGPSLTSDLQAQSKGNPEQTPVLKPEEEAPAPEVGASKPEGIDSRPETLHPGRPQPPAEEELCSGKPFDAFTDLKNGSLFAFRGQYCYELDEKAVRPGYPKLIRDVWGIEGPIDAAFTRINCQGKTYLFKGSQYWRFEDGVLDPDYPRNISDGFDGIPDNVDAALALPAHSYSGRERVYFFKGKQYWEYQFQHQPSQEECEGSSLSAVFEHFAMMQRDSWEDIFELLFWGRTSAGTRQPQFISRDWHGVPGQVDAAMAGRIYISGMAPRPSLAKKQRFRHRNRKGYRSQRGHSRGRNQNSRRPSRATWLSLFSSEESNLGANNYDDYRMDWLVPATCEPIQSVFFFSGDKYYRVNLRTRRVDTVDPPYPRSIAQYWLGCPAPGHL
Sequence of Apolipoprotein A-I precursor (human) (P02647 25-267 limits assumed): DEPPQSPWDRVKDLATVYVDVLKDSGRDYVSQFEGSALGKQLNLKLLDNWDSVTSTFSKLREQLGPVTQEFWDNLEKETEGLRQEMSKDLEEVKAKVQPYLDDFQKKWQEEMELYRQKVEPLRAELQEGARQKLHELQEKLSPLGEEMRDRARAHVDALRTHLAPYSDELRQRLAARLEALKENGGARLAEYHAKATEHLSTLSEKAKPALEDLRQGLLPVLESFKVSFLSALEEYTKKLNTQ

- # of unique peptides [1]: 17 peptides
- # of unique peptides [2]: 1 peptides
- # of unique peptides [3]: 1 peptides
- # of unique peptides [4]: 1 peptides
- # of unique peptides [5]: 1 peptides
- # of unique peptides [6]: 1 peptides
- # of unique peptides [7]: 1 peptides
- # of unique peptides [8]: 3 peptides
- # of unique peptides [9]: 2 peptides
- # of unique peptides [10]: 2 peptides
- # of unique peptides [11]: 3 peptides
- # of unique peptides [12]: 3 peptides
- # of unique peptides [13]: 1 peptides
- # of unique peptides [14]: 3 peptides
- # of unique peptides [15]: 4 peptides
- # of unique peptides [16]: 10 peptides
- # of unique peptides [17]: 1 peptides
- # of unique peptides [18]: 3 peptides
- # of unique peptides [19]: 1 peptides
- # of unique peptides [20]: 2 peptides
- # of unique peptides [21]: 1 peptides
- # of unique peptides [22]: 1 peptides
- # of unique peptides [23]: 1 peptides
- # of unique peptides [24]: 5 peptides
- # of unique peptides [25]: 2 peptides
- # of unique peptides [26]: 1 peptides
- # of unique peptides [27]: 1 peptides
- # of unique peptides [28]: 8 peptides
- # of unique peptides [29]: 1 peptides
- # of unique peptides [30]: 1 peptides
Substance: recombinant human BiP with C-terminal linker, FLAG-tag and His-tag (BiP-FLAG-His) (from UniProt P11021 19-654)
